Experimental findings from patent publication US20260250398A1 are described below.

The chains are these.
B1: CM0011 (FZD Diabody-Fc-LRP Diabody; paratopes 5019; 2539, 2542) (bispecific antibody)
chain 1: MNLLLILTFVAAAVAEFEVQLVESGGGLVQPGGSLRLSCAASGFNIGSSSIHWVRQAPGKGLEWVASIYSAFASTSYADSVKGRFTISADTSKNTAYLQMNSLRAEDTAVYYCARYHFPFGFALDYWGQGTLVTVSSGGGGSDIQMTQSPSSLSASVGDRVTITCRASQSVSSAVAWYQQKPGKAPKLLIYSASSLYSGVPSRFSGSRSGTDFTLTISSLQPEDFATYYCQQGVYLFTFGQGTKVEIKLEDKTHTKVEPKSSDKTHNCPPCPAPELLGGPSVFLFPPKPKDTLMISRTPEVTCVVVDVSHEDPEVKFNWYVDGVEVHNAKTKPREEQYNSTYRVVSVLTVLHQDWLNGKEYKCKVSNKALPAPIEKTISKAKGQPREPQVYTLPPIRELMTSNQVSLSCAVKGFYPSDIAVEWESNGQPENNYKTTPPVLDSDGSFFLVSKLTVDKSRWQQGNVFSCSVMHEALHNHYTQKSLSLSPGKSGSETPGTSESATPESGGGEVQLVESGGGLVQPGGSLRLSCAASGFNISSYYIHWVRQAPGKGLEWVASIYSSYGYTSYADSVKGRFTISADTSKNTAYLQMNSLRAEDTAVYYCARTVRGSKKPYFSGWAMDYWGQGTLVTVSSGGGGSDIQMTQSPSSLSASVGDRVTITCRASQSVSSAVAWYQQKPGKAPKLLIYSASSLYSGVPSRFSGSRSGTDFTLTISSLQPEDFATYYCQQYSWGPFTFGQGTKVEIK
chain 2: MNLLLILTFVAAAVAEFEVQLVESGGGLVQPGGSLRLSCAASGFNIGSSSIHWVRQAPGKGLEWVASIYSAFASTSYADSVKGRFTISADTSKNTAYLQMNSLRAEDTAVYYCARYHFPFGFALDYWGQGTLVTVSSGGGGSDIQMTQSPSSLSASVGDRVTITCRASQSVSSAVAWYQQKPGKAPKLLIYSASSLYSGVPSRFSGSRSGTDFTLTISSLQPEDFATYYCQQGVYLFTFGQGTKVEIKLEDKTHTKVEPKTSDKTHTCPPCPAPELLGGPSVFLFPPKPKDTLMISRTPEVTCVVVDVSHEDPEVKFNWYVDGVEVHNAKTKPREEQYNSTYRVVSVLTVLHQDWLNGKEYKCKVSNKALPAPIEKTISKAKGQPREPMVFDLPPSREEMTKNQVSLWCMVKGFYPSDIAVEWESNGQPENNYKTTPPVLDSDGSFFLYSKLTVDKSRWQQGNVFSCSVMHEALHNHYTQKSLSLSPGKSGSETPGTSESATPESGGGEVQLVESGGGLVQPGGSLRLSCAASGFNISYSSIHWVRQAPGKGLEWVAYISSYYGYTYYADSVKGRFTISADTSKNTAYLQMNSLRAEDTAVYYCARAHYFPWAGAMDYWGQGTLVTVSSGGGGSDIQMTQSPSSLSASVGDRVTITCRASQSVSSAVAWYQQKPGKAPKLLIYSASSLYSGVPSRFSGSRSGTDFTLTISSLQPEDFATYYCQQYYWPITFGQGTKVEIK
B2: CM0126 (FZD Diabody-Fc-LRP Diabody; paratopes 5016; 2539, 2542) (bispecific antibody)
chain 1: B1 chain 1 with G47H, S67A, I68T, A71S, A73G, T75I, S76T, F118H, F122Y
chain 2: B1 chain 2 with G47H, S67A, I68T, A71S, A73G, T75I, S76T, F118H, F122Y
B3: CT0001 (FZD IgG-LRP Diabody; paratopes 5016; 2539, 2542) (bispecific antibody)
heavy 1: EVQLVESGGGLVQPGGSLRLSCAASGFNIHSSSIHWVRQAPGKGLEWVAATYSSFGSITYADSVKGRFTISADTSKNTAYLQMNSLRAEDTAVYYCARYHHPFGYALDYWGQGTLVTVSSASTKGPSVFPLAPSSKSTSGGTAALGCLVKDYFPEPVTVSWNSGALTSGVHTFPAVLQSSGLYSLSSVVTVPSSSLGTQTYICNVNHKPSNTKVDKKVEPKSCDKTHTCPPCPAPELLGGPSVFLFPPKPKDTLMISRTPEVTCVVVDVSHEDPEVKFNWYVDGVEVHNAKTKPREEQYNSTYRVVSVLTVLHQDWLNGKEYKCKVSNKALPAPIEKTISKAKGQPREPQVYTLPPIRELMTSNQVSLSCAVKGFYPSDIAVEWESNGQPENNYKTTPPVLDSDGSFFLVSKLTVDKSRWQQGNVFSCSVMHEALHNHYTQKSLSLSPGKSGSETPGTSESATPESGGGEVQLVESGGGLVQPGGSLRLSCAASGFNISSYYIHWVRQAPGKGLEWVASIYSSYGYTSYADSVKGRFTISADTSKNTAYLQMNSLRAEDTAVYYCARTVRGSKKPYFSGWAMDYWGQGTLVTVSSGGGGSDIQMTQSPSSLSASVGDRVTITCRASQSVSSAVAWYQQKPGKAPKLLIYSASSLYSGVPSRFSGSRSGTDFTLTISSLQPEDFATYYCQQYSWGPFTFGQGTKVEIK
heavy 2: EVQLVESGGGLVQPGGSLRLSCAASGFNIHSSSIHWVRQAPGKGLEWVAATYSSFGSITYADSVKGRFTISADTSKNTAYLQMNSLRAEDTAVYYCARYHHPFGYALDYWGQGTLVTVSSASTKGPSVFPLAPSSKSTSGGTAALGCLVKDYFPEPVTVSWNSGALTSGVHTFPAVLQSSGLYSLSSVVTVPSSSLGTQTYICNVNHKPSNTKVDKKVEPKSCDKTHTCPPCPAPELLGGPSVFLFPPKPKDTLMISRTPEVTCVVVDVSHEDPEVKFNWYVDGVEVHNAKTKPREEQYNSTYRVVSVLTVLHQDWLNGKEYKCKVSNKALPAPIEKTISKAKGQPREPMVFDLPPSREEMTKNQVSLWCMVKGFYPSDIAVEWESNGQPENNYKTTPPVLDSDGSFFLYSKLTVDKSRWQQGNVFSCSVMHEALHNHYTQKSLSLSPGKSGSETPGTSESATPESGGGEVQLVESGGGLVQPGGSLRLSCAASGFNISYSSIHWVRQAPGKGLEWVAYISSYYGYTYYADSVKGRFTISADTSKNTAYLQMNSLRAEDTAVYYCARAHYFPWAGAMDYWGQGTLVTVSSGGGGSDIQMTQSPSSLSASVGDRVTITCRASQSVSSAVAWYQQKPGKAPKLLIYSASSLYSGVPSRFSGSRSGTDFTLTISSLQPEDFATYYCQQYYWPITFGQGTKVEIK
light: DIQMTQSPSSLSASVGDRVTITCRASQSVSSAVAWYQQKPGKAPKLLIYSASSLYSGVPSRFSGSRSGTDFTLTISSLQPEDFATYYCQQGVYLFTFGQGTKVEIKRTVAAPSVFIFPPSDEQLKSGTASVVCLLNNFYPREAKVQWKVDNALQSGNSQESVTEQDSKDSTYSLSSTLTLSKADYEKHKVYACEVTHQGLSSPVTKSFNRGEC

Numbering of substitutions follows the chain as printed.

The target in the experiment is FZD1/2/4/5/7/8. The experiment in a line: cell-based or functional assay.
Consider B1, for which the TOPFLASH % Wnt Maxima came to 63 % Wnt Maxima and the TOPFLASH EC50 was 0.3 nM.
As to B2, the TOPFLASH % Wnt Maxima was found to be 52 % Wnt Maxima and the TOPFLASH EC50 was 0.3 nM.
The molecule B3 yielded a TOPFLASH % Wnt Maxima of 57 % Wnt Maxima and a TOPFLASH EC50 of 0.3 nM.
